# Values quoted from earlier work as cited in paper PMC8300624.
# Read-outs that look alike come from different tables or passages of the source.
# Key:
# ASK1 TBD (Homo sapiens) [1] = molecular target: ASK1 TBD (Homo sapiens) (UniProt Q99683)
# ASK1 TBD (Homo sapiens) [2] = molecular target: ASK1 TBD (Homo sapiens) (UniProt Q99683); remark: listed apart in the source
# Thioredoxin 1, sequence (P10599 2-105): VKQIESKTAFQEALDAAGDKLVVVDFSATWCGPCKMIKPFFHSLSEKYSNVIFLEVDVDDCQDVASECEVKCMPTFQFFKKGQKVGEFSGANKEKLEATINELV
# ASK1 TBD (Homo sapiens), sequence (Q99683 88-302): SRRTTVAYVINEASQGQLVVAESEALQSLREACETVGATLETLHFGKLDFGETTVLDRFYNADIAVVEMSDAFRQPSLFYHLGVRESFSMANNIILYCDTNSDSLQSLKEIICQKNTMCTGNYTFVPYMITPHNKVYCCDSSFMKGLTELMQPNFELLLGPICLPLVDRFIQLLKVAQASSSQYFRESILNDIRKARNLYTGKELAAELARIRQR
substance,measurement,setting,value
Thioredoxin 1 (from UniProt P10599),Kd,ASK1 TBD (Homo sapiens) [1],4000 nM
same,Kd,ASK1 TBD (Homo sapiens) [2],300 nM
